From FireProtDB come the findings set out here.

B1: Lysozyme C, P61626 (parent)
chain: MKALIVLGLVLLSVTVQGKVFERCELARTLKRLGMDGYRGISLANWMCLAKWESGYNTRATNYNAGDRSTDYGIFQINSRYWCNDGKTPGAVNACHLSCSALLQDNIADAVACAKRVVRDPQGIRAWVAWRNRCQNRDVRQYVQGCGV
B2: Colicin-E1, P02978 (parent)
chain: METAVAYYKDGVPYDDKGQVIITLLNGTPDGSGSGGGGGKGGSKSESSAAIHATAKWSTAQLKKTQAEQAARAKAAAEAQAKAKANRDALTQRLKDIVNEALRHNASRTPSATELAHANNAAMQAEDERLRLAKAEEKARKEAEAAEKAFQEAEQRRKEIEREKAETERQLKLAEAEEKRLAALSEEAKAVEIAQKKLSAAQSEVVKMDGEIKTLNSRLSSSIHARDAEMKTLAGKRNELAQASAKYKELDELVKKLSPRANDPLQNRPFFEATRRRVGAGKIREEKQKQVTASETRINRINADITQIQKAISQVSNNRNAGIARVHEAEENLKKAQNNLLNSQIKDAVDATVSFYQTLTEKYGEKYSKMAQELADKSKGKKIGNVNEALAAFEKYKDVLNKKFSKADRDAIFNALASVKYDDWAKHLDQFAKYLKITGHVSFGYDVVSDILKIKDTGDWKPLFLTLEKKAADAGVSYVVALLFSLLAGTTLGIWGIAIVTGILCSYIDKNKLNTINEVLGI
B3: Glutathione S-transferase Mu 1, P04905 (parent)
chain: MPMILGYWNVRGLTHPIRLLLEYTDSSYEEKRYAMGDAPDYDRSQWLNEKFKLGLDFPNLPYLIDGSRKITQSNAIMRYLARKHHLCGETEEERIRADIVENQVMDNRMQLIMLCYNPDFEKQKPEFLKTIPEKMKLYSEFLGKRPWFAGDKVTYVDFLAYDILDQYHIFEPKCLDAFPNLKDFLARFEGLKKISAYMKSSRYLSTPIFSKLAQWSNK
B4: Guanyl-specific ribonuclease T1, P00651 (parent)
chain: MMYSKLLTLTTLLLPTALALPSLVERACDYTCGSNCYSSSDVSTAQAAGYQLHEDGETVGSNSYPHKYNNYEGFDFSVSSPYYEWPILSSGDVYSGGSPGADRVVFNENNQLAGVITHTGASGNNFVECT

One data set covers variants of B1. To be noted: Homo sapiens; pH 2.35; 36.7 °C; Thermal; DSC; Gly-HCl 0.05 M; reversible: yes; structure 1LZ1; whole UniProt chain shown.
For the variant I77A, the “unfolding enthalpy (calorimetric)” value is 55.7 kcal/mol and the “unfolding enthalpy (van 't Hoff)” value was found to be 58.1 kcal/mol.

The same data set, now with this note: Homo sapiens; pH 2.9; 47.2 °C; Thermal; DSC; Gly-HCl 0.05 M; reversible: yes; structure 1LZ1; whole UniProt chain shown.
With I77A, the “unfolding enthalpy (calorimetric)” value turned out to be 72.7 kcal/mol and the “unfolding enthalpy (van 't Hoff)” value was 74.8 kcal/mol.

The same data set, now with this note: Homo sapiens; pH 3; 10 °C; GdnHCl; Fluorescence; glycine-HCl 40 mM; reversible: yes; structure 1LZ1; whole UniProt chain shown.
On to C95A C113A, for which the “ddG of mutation (higher = less stable)” value was found to be 5.7 kcal/mol and the unfolding free energy was 6.1 kcal/mol.

Still in this data set, the particulars now being: Homo sapiens; pH 4; 10 °C; GdnHCl; CD; glycine-HCl 40 mM; reversible: yes; structure 1LZ1; whole UniProt chain shown.
Turning to C95A C113A, the “ddG of mutation (higher = less stable)” value was determined as 5.8 kcal/mol and the unfolding free energy is 8.2 kcal/mol.

The same data set, now with this note: Homo sapiens; pH 4; 10 °C; GdnHCl; CD; GdnHCl 40 mM; reversible: yes; structure 1LZ1; whole UniProt chain shown.
Regarding D85H, the “ddG of mutation (higher = less stable)” value was 4.54 kcal/mol, the denaturant m value was 3.2 kcal/mol/M, the “denaturant midpoint (higher = more stable)” value (from here on “denaturant midpoint”) came out at 3.1 M and the unfolding free energy was 9.44 kcal/mol.

For the variant I74T, the “ddG of mutation (higher = less stable)” value was found to be 6.67 kcal/mol, the denaturant m value stood at 2.96 kcal/mol/M, the “denaturant midpoint” value turned out to be 2.7 M and the unfolding free energy is 7.31 kcal/mol.

Still in this data set, the particulars now being: Homo sapiens; pH 5.2; 20 °C; GdnHCl; CD; Sodium acetate 20 mM; reversible: yes; structure 1LZ1; whole UniProt chain shown.
In the case of W82C C83A, the “ddG of mutation (higher = less stable)” value worked out at 2.2 kcal/mol, the denaturant m value is 3.3 kcal/mol/M, the “denaturant midpoint” value stood at 3.79 M and the unfolding free energy was 12.5 kcal/mol.

Another data set covers variants of B2. To be noted: Escherichia coli; pH 6; 22 °C; Urea; Fluorescence; dimethylglutaric acid 10 mM; NaCl 100 mM; reversible: yes; structure 2I88; whole UniProt chain shown.
With W424F W460F, the “denaturant midpoint” value is 5.3 M.

Take F431W: the “denaturant midpoint” value is 5.8 M.

As for Y367W, the “denaturant midpoint” value turned out to be 4.9 M.

F404W: the “denaturant midpoint” value turned out to be 4.8 M.

As for Y507W, the “denaturant midpoint” value stood at 5.7 M.

As for F413W, the “denaturant midpoint” value turned out to be 5.7 M.

Regarding F484W, the “denaturant midpoint” value was found to be 4.6 M.

For the variant W460F W495F, the “denaturant midpoint” value came to 6.1 M.

For the variant F355T, the “denaturant midpoint” value is 4.9 M.

F443W: the “denaturant midpoint” value is 5.5 M.

With W424F W495F, the “denaturant midpoint” value came out at 6.1 M.

In the next data set the parent is B3. To be noted: Rattus norvegicus; pH 6.5; 20 °C; Urea; CD; NaH2PO4 20 mM; NaCl 0.1 M; reversible: Yes; structure 1GSB; whole UniProt chain shown.
On to F57S R82A, for which the denaturant m value was 2 kcal/mol/M, the “denaturant midpoint” value worked out at 4.6 M and the unfolding free energy was found to be 10.1 kcal/mol.

A further data set covers variants of B4. As to conditions: Aspergillus oryzae (strain ATCC 42149 / RIB 40); pH 7; 25 °C; Urea; Fluorescence; MOPS 30 mM; structure 1RN1; whole UniProt chain shown.
Turning to E84A, the “ddG of mutation (higher = less stable)” value stood at 0.9 kcal/mol, the denaturant m value is 1.2 kcal/mol/M, the “denaturant midpoint” value was determined as 3.92 M and the unfolding free energy is 4.72 kcal/mol.

On to Q51K, for which the “ddG of mutation (higher = less stable)” value was -0.77 kcal/mol, the denaturant m value was 1.21 kcal/mol/M, the “denaturant midpoint” value was found to be 5.3 M and the unfolding free energy stood at 6.39 kcal/mol.

Staying with this data set, now noted: Aspergillus oryzae (strain ATCC 42149 / RIB 40); pH 7; 48.6 °C; Thermal; Fluorescence; MOPS 30 mM; structure 1RN1; whole UniProt chain shown.
Take E84A: the “ddG of mutation (higher = less stable)” value was determined as 0.78 kcal/mol.

Q51K: the “ddG of mutation (higher = less stable)” value is -0.93 kcal/mol.

Q51K E84A: the “ddG of mutation (higher = less stable)” value was -0.06 kcal/mol.

The data set is the same for the next values; noted with them: Aspergillus oryzae (strain ATCC 42149 / RIB 40); pH 7; Thermal; Fluorescence; MOPS 30 mM; structure 1RN1; whole UniProt chain shown.
For the variant Q51K, the Tm turned out to be 51.7 °C; the “change of melting temperature, mutant - wild type (higher = more stable)” value (from here on “change of melting temperature, mutant”) was found to be 3.4 °C; the “unfolding enthalpy (van 't Hoff)” value is 107 kcal/mol.

With Q51K E84A, the Tm amounted to 48.8 °C; the “change of melting temperature, mutant” value was -0.5 °C; the “unfolding enthalpy (van 't Hoff)” value stood at 93 kcal/mol.

The data set is the same for the next values; noted with them: Aspergillus oryzae (strain ATCC 42149 / RIB 40); pH 7; 25 °C; Thermal; CD; MOPS 30 mM; structure 1RN1; whole UniProt chain shown.
Take D75H: the “ddG of mutation (higher = less stable)” value was -1.1 kcal/mol.

The data set is the same for the next values; noted with them: Aspergillus oryzae (strain ATCC 42149 / RIB 40); pH 7; Thermal; Absorbance; Sodium cacodylate 10 mM; reversible: yes; structure 1RN1; whole UniProt chain shown.
As to Y71W W85Y, the Tm is 53.1 °C and the “change of melting temperature, mutant” value is -4.5 °C.

Consider Y71W, for which the Tm was 56 °C and the “change of melting temperature, mutant” value is -1.6 °C.

Staying with this data set, now noted: Aspergillus oryzae (strain ATCC 42149 / RIB 40); pH 7.4; 25 °C; Urea; Fluorescence; Sodium acetate 50 mM; reversible: yes; structure 1RN1; whole UniProt chain shown.
Take A47G G49A: the denaturant m value worked out at 1.37 kcal/mol/M, the “denaturant midpoint” value is 4.7 M and the unfolding free energy was 6 kcal/mol.

Turning to A47G, the denaturant m value came out at 1.3 kcal/mol/M, the “denaturant midpoint” value was 5.5 M and the unfolding free energy came out at 7.1 kcal/mol.

The data set is the same for the next values; noted with them: Aspergillus oryzae (strain ATCC 42149 / RIB 40); pH 5; 10 °C; GdnHCl; CD; Na acetate 0.1 M; structure 1RN1; whole UniProt chain shown.
Take S80G P81N: the denaturant m value came to 2.8 kcal/mol/M and the unfolding free energy came to 11.2 kcal/mol.

Still in this data set, the particulars now being: Aspergillus oryzae (strain ATCC 42149 / RIB 40); pH 8; 15 °C; Urea; Absorbance; Tris-HCl 0.1 M; NaCl 2.8 M; structure 1RN1; whole UniProt chain shown.
Regarding S80G P81N, the unfolding free energy was determined as 5.98 kcal/mol.

The data set is the same for the next values; noted with them: Aspergillus oryzae (strain ATCC 42149 / RIB 40); pH 8; 15 °C; Urea; CD; Tris-HCl 0.1 M; NaCl 2.5 M; structure 1RN1; whole UniProt chain shown.
For the variant S80G P81N, the unfolding free energy came to 2.44 kcal/mol.

One may read the Tm as the temperature at the midpoint of the melting transition.
